Publication PMC5063613 (Molecular Biology of the Cell, 2016)

Target: T1, GFP-C9orf72 (human, UniProt Q96LT7-1 1-481)
T1 sequence: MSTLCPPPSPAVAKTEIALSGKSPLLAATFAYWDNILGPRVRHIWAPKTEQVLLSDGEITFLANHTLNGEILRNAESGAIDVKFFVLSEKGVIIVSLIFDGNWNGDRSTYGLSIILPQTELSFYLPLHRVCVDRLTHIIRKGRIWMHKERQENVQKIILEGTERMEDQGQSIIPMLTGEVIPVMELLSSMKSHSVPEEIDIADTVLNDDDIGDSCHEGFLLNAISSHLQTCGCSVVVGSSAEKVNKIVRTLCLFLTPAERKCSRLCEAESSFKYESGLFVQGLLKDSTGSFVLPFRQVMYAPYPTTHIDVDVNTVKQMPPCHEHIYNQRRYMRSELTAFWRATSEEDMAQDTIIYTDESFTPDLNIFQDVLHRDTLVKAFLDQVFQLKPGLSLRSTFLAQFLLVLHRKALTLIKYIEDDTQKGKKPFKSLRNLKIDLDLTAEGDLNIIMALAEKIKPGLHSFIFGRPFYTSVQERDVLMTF
Assay: co-IP

stoichiometry N: ~1
B1: SMCR8-tdTomato (natural protein)
chain: MISAPDVVAFTKEEEYEEEPYNEPALPEEYSVPLFPFASQGANPWSKLSGAKFSRDFILISEFSEQVGPQPLLTIPNDTKVFGTFDLNYFSLRIMSVDYQASFVGHPPGSAYPKLNFVEDSKVVLGDSKEGAFAYVHHLTLYDLEARGFVRPFCMAYISADQHKIMQQFQELSAEFSRASECLKTGNRKAFAGELEKKLKDLDYTRTVLHTETEIQKKANDKGFYSSQAIEKANELASVEKSIIEHQDLLKQIRSYPHRKLKGHDLCPGEMEHIQDQASQASTTSNPDESADTDLYTCRPAYTPKLIKAKSTKCFDKKLKTLEELCDTEYFTQTLAQLSHIEHMFRGDLCYLLTSQIDRALLKQQHITNFLFEDFVEVDDRMVEKQESIPSKPSQDRPPSSSLEECPIPKVLISVGSYKSSVESVLIKMEQELGDEEYKEVEVTELSSFDPQENLDYLDMDMKGSISSGESIEVLGTEKSTSVLSKSDSQASLTVPLSPQVVRSKAVSHRTISEDSIEVLSTCPSEALIPDDFKASYPSAINEEESYPDGNEGAIRFQASISPPELGETEEGSIENTPSQIDSSCCIGKESDGQLVLPSTPAHTHSDEDGVVSSPPQRHRQKDQGFRVDFSVENANPSSRDNSCEGFPAYELDPSHLLASRDISKTSLDNYSDTTSYVSSVASTSSDRIPSAYPAGLSSDRHKKRAGQNALKFIRQYPFAHPAIYSLLSGRTLVVLGEDEAIVRKLVTALAIFVPSYGCYAKPVKHWASSPLHIMDFQKWKLIGLQRVASPAGAGTLHALSRYSRYTSILDLDNKTLRCPLYRGTLVPRLADHRTQIKRGSTYYLHVQSMLTQLCSKAFLYTFCHHLHLPTHDKETEELVASRQMSFLKLTLGLVNEDVRVVQYLAELLKLHYMQESPGTSHPMLRFDYVPSFLYKI
